Measured values from patent US20250361321A1 (Memorial Sloan Kettering, published 2025).

Columns and labels:
[1] = biological target: T1, N30 mutant MUC16-C114-GFP fusion protein expressed on HEK293 cells (HEK293-MUC16mut) (human); assay: FACS, scFv phage on HEK293-MUC16mut cells
T1 construct: The GFP signal of this line was weaker than that of the WT line (26x against 170x MFI increase); also called MUC16c114 N30A; not shown: GFP fusion partner
T1 chain: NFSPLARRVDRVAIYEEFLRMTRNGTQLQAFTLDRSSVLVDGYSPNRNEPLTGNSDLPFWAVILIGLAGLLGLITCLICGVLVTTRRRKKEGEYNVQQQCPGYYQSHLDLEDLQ
Experimental: (§1) 540 phage clones identified from the cell panning were then tested by FACS analysis for binding to HEK293-MUC16WT cells. Briefly, 0.2 million cells (in PBS+5% FBS+0.05% NaN₃) were incubated for 2 h at 4° C. with 50 μl of ˜[…] pfu/mL phage in PBS. FACS was carried out using primary antibody mouse anti-M13 mAb (Thermo #MAI-12900) and secondary antibody PE anti-mouse IgG (Vectors Lab #EI-2007).
(§2) The 40 MUC16 specific clones were tested for their binding to HEK293-MUC16WT. HEK293-MUC16mut, and parental HEK293 cells. […] These clones were thus specific for the N-glycosylation site (N30).

[2] = biological target: T2, wildtype MUC16-C114-GFP fusion protein expressed on HEK293 cells (HEK293-MUC16WT) (human); assay: FACS, scFv phage on HEK293-MUC16WT cells (FIG. 5)
T2 construct: not shown: GFP fusion partner
T2 chain: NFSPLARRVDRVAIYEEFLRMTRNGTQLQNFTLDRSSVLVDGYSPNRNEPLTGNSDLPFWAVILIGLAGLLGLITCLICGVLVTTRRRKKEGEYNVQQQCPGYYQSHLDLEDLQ
Experimental: as §1, §2

[3] = biological target: T3, human MUC16 as expressed on MUC16+ cancer cell lines (OVCAR3, SKOV8, OVCA432) (human); assay: FACS on MUC16+ OVCAR3 cells, BsAb followed by a secondary antibody, against secondary antibody alone
T3 construct: This is endogenous MUC16 on ovarian cancer cell lines; also called hMUC16; Mucin-16
Experimental: In this example, the specificity of the anti-MUC16 BsAbs for binding to cancer cells that express MUC16 was assessed. In one study, two target cell lines were employed, a MUC16⁺ OVCAR3 cell line and a MUC16 SKOV3 cell line. OVCAR3 and SKOV3 cell lines were obtained through the American Type Culture Collection (ATCC®, Manassas, VA) and sustained in culture according to the ATCC® literature. FACS analysis of anti-MUC16 antibody binding to the two target cell lines was performed to confirm that antibody binding was observed only with the MUC16+ OVCAR3 cell line. SKOV3 or OVCAR3 cell lines were incubated with the anti-MUC16 Ab followed by a secondary antibody or with a secondary antibody alone as a control.

Binder | binding result [1] | binding result [2] | MFI increase in binding over the control cells [3]
anti-MUC16 clone 12 scFv antibody phage clone (scFv, The phage coat fusion is not described) scFv: NFMLTQPHSVSESPGKTVTISCTRSRGSIASAYVQWYQQRPGSAPITVIYEDYERPSEIPDRFSGSIDSSSNSASLTISGLKTEDEADYYCQSYDDNDHVIFGGGTKVTVLGSRGGGGSGGGGSGGGGSLEMAQVQLQQWGAGLLKPSETLSLTCAVYGGSFSGYYWSWIRQPPGKGLEWIGEINHSGSTNYNPSLKSRIIMSVDTSKRQFSLKLRSATAADTAVYYCARWSPFSYKQMYDYWGQGTLVTVSS | no binding | binds | 
anti-MUC16 clone 8 BsAb (Clone 8/anti-CD3 bispecific antibody) (bispecific antibody, It was secreted from CHO cells; also called clone 8 bispecific antibody; anti-MUC16 clone & BsAb) DIQLTQSPSAVSASVGDRVTITCRASQDVSKWLAWYQQKPGKAPRLLISAASGLQSWVPSRFSGSGSGTEFTLSISSLQPEDFATYYCQQANSFPWTFGQGTKVEIKRSRGGGGSGGGGSGGGGSLEMAQVQLQQWGAGLLKPSETLSLTCAVYGGSFSGYYWSWIRQPPGKGLEWIGEINHSGSTNYNPSLKSRVTISVDTSKNQFSLKLSSVTAADTAVYYCARQSYITDSWGQGTLVTVSSTSGGGGSDVQLVQSGAEVKKPGASVKVSCKASGYTFTRYTMHWVRQAPGQGLEWIGYINPSRGYTNYADSVKGRFTITTDKSTSTAYMELSSLRSEDTATYYCARYYDDHYCLDYWGQGTTVTVSSGEGTSTGSGGSGGSGGADDIVLTQSPATLSLSPGERATLSCRASQSVSYMNWYQQKPGKAPKRWIYDTSKVASGVPARFSGSGSGTDYSLTINSLEAEDAATYYCQQWSSNPLTFGGGTKVEIKHHHHHH |  |  | ~300 × (fold MFI)
anti-MUC16 clone 8 scFv antibody phage clone (scFv, The phage coat fusion is not described) scFv: DIQLTQSPSAVSASVGDRVTITCRASQDVSKWLAWYQQKPGKAPRLLISAASGLQSWVPSRFSGSGSGTEFTLSISSLQPEDFATYYCQQANSFPWTFGQGTKVEIKRSRGGGGSGGGGSGGGGSLEMAQVQLQQWGAGLLKPSETLSLTCAVYGGSFSGYYWSWIRQPPGKGLEWIGEINHSGSTNYNPSLKSRVTISVDTSKNQFSLKLSSVTAADTAVYYCARQSYITDSWGQGTLVTVSS | no binding | binds | 
